{
  "source": "patent US20150132859A1",
  "key": {"[1]": {"biological_target": "EcFkpA-TpN17-Bi(DDS) (Treponema pallidum (TpN17 part); E. coli (FkpA part))", "test": "DAGS ECL; detection EcSkp-TpN17-Ru; competitor EcSkp-VcLp15 1.0 ug/ml in R1"}, "[2]": {"biological_target": "EcSS-TpN17-Bi(DDS) (Treponema pallidum (TpN17 part); E. coli (SlyD part))", "test": "DAGS ECL; detection PmSS-TpN17-Ru; competitor EcSlyD-VcLp15 0.2 ug/ml in R1"}, "[3]": {"biological_target": "EcFkpA-TpN17-Bi(DDS) (Treponema pallidum (TpN17 part); E. coli (FkpA part))", "test": "DAGS ECL; detection EcSkp-TpN17-Ru; competitor EcSlyD-VcLp15 0.1 ug/ml in R1"}, "[4]": {"biological_target": "EcFkpA-TpN17-Bi(DDS) (Treponema pallidum (TpN17 part); E. coli (FkpA part))", "test": "DAGS ECL; detection EcSkp-TpN17-Ru; competitor EcSlyD-VcLp15 0.5 ug/ml in R1"}, "[5]": {"biological_target": "EcFkpA-TpN17-Bi(DDS) (Treponema pallidum (TpN17 part); E. coli (FkpA part))", "test": "DAGS ECL; detection EcSkp-TpN17-Ru; EcSkp-VcLp15 0 ug/ml in R1"}, "[6]": {"biological_target": "EcSS-TpN17-Bi(DDS) (Treponema pallidum (TpN17 part); E. coli (SlyD part))", "test": "DAGS ECL; detection PmSS-TpN17-Ru; EcSkp-VcLp15 0 ug/ml in R1"}, "[7]": {"biological_target": "EcSS-TpN17-Bi(DDS) (Treponema pallidum (TpN17 part); E. coli (SlyD part))", "test": "DAGS ECL; detection PmSS-TpN17-Ru; competitor EcSkp-VcLp15 0.1 ug/ml in R1"}, "[8]": {"biological_target": "EcSS-TpN17-Bi(DDS) (Treponema pallidum (TpN17 part); E. coli (SlyD part))", "test": "DAGS ECL; detection PmSS-TpN17-Ru; EcSlyD-VcLp15 0 ug/ml in R1"}, "[9]": {"biological_target": "EcFkpA-TpN17-Bi(DDS) (Treponema pallidum (TpN17 part); E. coli (FkpA part))", "test": "DAGS ECL; detection EcSkp-TpN17-Ru; competitor EcSlyD-VcLp15 0.3 ug/ml in R1"}, "[10]": {"biological_target": "EcFkpA-TpN17-Bi(DDS) (Treponema pallidum (TpN17 part); E. coli (FkpA part))", "test": "DAGS ECL; detection EcSkp-TpN17-Ru; competitor EcSlyD-VcLp15 0.2 ug/ml in R1"}, "[11]": {"biological_target": "EcFkpA-TpN17-Bi(DDS) (Treponema pallidum (TpN17 part); E. coli (FkpA part))", "test": "DAGS ECL; detection EcSkp-TpN17-Ru; EcSlyD-VcLp15 0 ug/ml in R1"}, "[12]": {"biological_target": "EcSS-TpN17-Bi(DDS) (Treponema pallidum (TpN17 part); E. coli (SlyD part))", "test": "DAGS ECL; detection PmSS-TpN17-Ru; competitor EcSlyD-VcLp15 0.3 ug/ml in R1"}, "[13]": {"biological_target": "EcFkpA-TpN17-Bi(DDS) (Treponema pallidum (TpN17 part); E. coli (FkpA part))", "test": "DAGS ECL; detection EcSkp-TpN17-Ru; competitor EcSkp-VcLp15 0.1 ug/ml in R1"}, "[14]": {"biological_target": "EcSS-TpN17-Bi(DDS) (Treponema pallidum (TpN17 part); E. coli (SlyD part))", "test": "DAGS ECL; detection PmSS-TpN17-Ru; competitor EcSkp-VcLp15 1.0 ug/ml in R1"}, "[15]": {"biological_target": "EcSS-TpN17-Bi(DDS) (Treponema pallidum (TpN17 part); E. coli (SlyD part))", "test": "DAGS ECL; detection PmSS-TpN17-Ru; competitor EcSlyD-VcLp15 0.5 ug/ml in R1"}, "[16]": {"biological_target": "EcSS-TpN17-Bi(DDS) (Treponema pallidum (TpN17 part); E. coli (SlyD part))", "test": "DAGS ECL; detection PmSS-TpN17-Ru; competitor EcSlyD-VcLp15 1.0 ug/ml in R1"}, "[17]": {"biological_target": "EcSS-TpN17-Bi(DDS) (Treponema pallidum (TpN17 part); E. coli (SlyD part))", "test": "DAGS ECL; detection PmSS-TpN17-Ru; competitor EcSlyD-VcLp15 0.1 ug/ml in R1"}, "[18]": {"biological_target": "EcFkpA-TpN17-Bi(DDS) (Treponema pallidum (TpN17 part); E. coli (FkpA part))", "test": "DAGS ECL; detection EcSkp-TpN17-Ru; competitor EcSlyD-VcLp15 1.0 ug/ml in R1"}},
  "data": [
    {"substance": "Trina #0642", "values": [
      {"measurement": "counts", "setting": "[1]", "value": 744, "unit": "counts"},
      {"measurement": "counts", "setting": "[2]", "value": 638, "unit": "counts"},
      {"measurement": "counts", "setting": "[3]", "value": 716, "unit": "counts"},
      {"measurement": "counts", "setting": "[4]", "value": 698, "unit": "counts"},
      {"measurement": "counts", "setting": "[5]", "value": 750, "unit": "counts"},
      {"measurement": "counts", "setting": "[6]", "value": 673, "unit": "counts"},
      {"measurement": "counts", "setting": "[7]", "value": 673, "unit": "counts"},
      {"measurement": "counts", "setting": "[8]", "value": 657, "unit": "counts"},
      {"measurement": "counts", "setting": "[9]", "value": 698, "unit": "counts"},
      {"measurement": "counts", "setting": "[10]", "value": 722, "unit": "counts"},
      {"measurement": "counts", "setting": "[11]", "value": 778, "unit": "counts"},
      {"measurement": "counts", "setting": "[12]", "value": 626, "unit": "counts"},
      {"measurement": "counts", "setting": "[13]", "value": 757, "unit": "counts"},
      {"measurement": "counts", "setting": "[14]", "value": 632, "unit": "counts"},
      {"measurement": "counts", "setting": "[15]", "value": 623, "unit": "counts"},
      {"measurement": "counts", "setting": "[16]", "value": 610, "unit": "counts"},
      {"measurement": "counts", "setting": "[17]", "value": 613, "unit": "counts"},
      {"measurement": "counts", "setting": "[18]", "value": 661, "unit": "counts"}
    ]},
    {"substance": "Trina #0646", "values": [
      {"measurement": "counts", "setting": "[1]", "value": 815, "unit": "counts"},
      {"measurement": "counts", "setting": "[2]", "value": 634, "unit": "counts"},
      {"measurement": "counts", "setting": "[3]", "value": 795, "unit": "counts"},
      {"measurement": "counts", "setting": "[4]", "value": 784, "unit": "counts"},
      {"measurement": "counts", "setting": "[5]", "value": 840, "unit": "counts"},
      {"measurement": "counts", "setting": "[6]", "value": 651, "unit": "counts"},
      {"measurement": "counts", "setting": "[7]", "value": 659, "unit": "counts"},
      {"measurement": "counts", "setting": "[8]", "value": 634, "unit": "counts"},
      {"measurement": "counts", "setting": "[9]", "value": 802, "unit": "counts"},
      {"measurement": "counts", "setting": "[10]", "value": 817, "unit": "counts"},
      {"measurement": "counts", "setting": "[11]", "value": 797, "unit": "counts"},
      {"measurement": "counts", "setting": "[12]", "value": 628, "unit": "counts"},
      {"measurement": "counts", "setting": "[13]", "value": 847, "unit": "counts"},
      {"measurement": "counts", "setting": "[14]", "value": 646, "unit": "counts"},
      {"measurement": "counts", "setting": "[15]", "value": 621, "unit": "counts"},
      {"measurement": "counts", "setting": "[16]", "value": 613, "unit": "counts"},
      {"measurement": "counts", "setting": "[17]", "value": 617, "unit": "counts"},
      {"measurement": "counts", "setting": "[18]", "value": 784, "unit": "counts"}
    ]},
    {"substance": "Trina #0647", "values": [
      {"measurement": "counts", "setting": "[2]", "value": 606, "unit": "counts"},
      {"measurement": "counts", "setting": "[3]", "value": 786, "unit": "counts"},
      {"measurement": "counts", "setting": "[4]", "value": 762, "unit": "counts"},
      {"measurement": "counts", "setting": "[8]", "value": 623, "unit": "counts"},
      {"measurement": "counts", "setting": "[9]", "value": 773, "unit": "counts"},
      {"measurement": "counts", "setting": "[10]", "value": 764, "unit": "counts"},
      {"measurement": "counts", "setting": "[11]", "value": 774, "unit": "counts"},
      {"measurement": "counts", "setting": "[12]", "value": 620, "unit": "counts"},
      {"measurement": "counts", "setting": "[15]", "value": 618, "unit": "counts"},
      {"measurement": "counts", "setting": "[16]", "value": 623, "unit": "counts"},
      {"measurement": "counts", "setting": "[17]", "value": 614, "unit": "counts"},
      {"measurement": "counts", "setting": "[18]", "value": 742, "unit": "counts"}
    ]}
  ]
}
